Consider one substance from article PMC6561242.

The test has as its target α-synuclein 1–140 tagged with the C-terminal Venus fragment (UniProt P37840). Kind of test: split reporter.

Chain of VAMP2 tagged with the N-terminal Venus fragment (natural protein) (P63027 2-116): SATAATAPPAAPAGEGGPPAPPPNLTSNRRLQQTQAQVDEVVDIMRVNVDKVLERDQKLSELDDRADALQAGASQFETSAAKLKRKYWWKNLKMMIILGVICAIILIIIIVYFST

“VAMP2 tagged with the N-terminal Venus fragment (natural protein)” yielded a Venus complementation fluorescence at boutons relative to α-syn 1–140 of 1 and a Venus complementation fluorescence relative to α-syn 1–140 of 1.
